The target in the assay is T1, PD-L1 on PD-L1-positive target cell lines DU-145 and U-251 (human, UniProt Q9NZQ7 19-290).
T1 construct: also called Programmed death ligand 1; CD274
The assay is described as follows: flow cytometry on DU-145 and U-251 cells, shown as % binding of max over time at 4 C or 37 C. (In general: A flow cytometer gives signals particle by particle.)

T1 sequence (Q9NZQ7 19-290): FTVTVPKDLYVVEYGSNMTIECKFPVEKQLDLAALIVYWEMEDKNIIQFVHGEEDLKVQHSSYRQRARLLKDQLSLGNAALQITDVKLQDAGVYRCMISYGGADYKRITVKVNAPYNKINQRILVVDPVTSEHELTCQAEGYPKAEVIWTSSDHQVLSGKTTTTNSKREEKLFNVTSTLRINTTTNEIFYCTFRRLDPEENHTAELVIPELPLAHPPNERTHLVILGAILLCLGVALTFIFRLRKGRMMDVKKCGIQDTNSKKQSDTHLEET
Description: Data is shown as % binding of max by normalizing the obtained MFI to the highest MFI measured. […] Data is shown as mean ± SD of one experiment measured in technical triplicates.
Subsequently, stained target cells were incubated for indicated time points at either 4° C. or 37° C. Binding of PD-L1-specific TMs was analyzed via flow cytometry using an PE-labeled α-His Ab.

B1: TM-PD-L1-scFv5 (scFv)
scFv: GQVQLVQSGAEVKKPGASVKVSCKASGYTFTDYGFSWVRQAPGQGLEWMGWITAYNGNTNYAQKLQGRVTMTTDTSTSTVYMELRSLRSDDTAVYYCARDYFYGMDVWGQGTTVTVSSGGGGSGGGGSGGGGSEIVLTQSPATLSLSPGERATLSCRASQSVSSYLVWYQQKPGQAPRLLIYDASNRATGIPARFSGSGSGTDFTLTISSLEPEDFAVYYCQQRSNWPRTFGQGTKVEIKAAAKPLPEVTDEYARGGPGGGGSHHHHHHHH
notes: also called TMPD-L1v5
Consider B1, for which the binding result is given as “binds”.

Source of the values: patent publication US20230183351A1 (AVENCELL EUROPE, published 2023).
